Measurements taken from paper PMC5586252, “PP2A-B′ holoenzyme substrate recognition, regulation and role in cytokinesis” (Cell Discovery, 2017).

Biological target: GST-tagged B′γ1 regulatory subunit (UniProt Q13362)
Experiment: pull-down; 10 μg GST-tagged B′γ1 immobilised; titrated concentrations of phosphorylated or non-phosphorylated Cyk4 (1–177)

concentration at half maximum binding: 2.5 to 5 µM | lowest concentration at which the interaction is detected: 0.6 µM
Substance: pCyk4 (1–177), Plk1-phosphorylated (from UniProt Q9H0H5 1-177) (domain or fragment)
